Experimental data taken from paper doi:10.1101/2024.07.11.602936 (bioRxiv, 2024).

Molecular target: the molecule itself
Assay: cryo-EM structure

B1: glutamine synthetase (GS) (enzyme)
chain: MATSASSHLNKGIKQMYMNLPQGEKIQLMYIWVDGTGEGLRCKTRTLDCDPKCVEELPEWNFDGSSTFQSEGSNSDMYLHPVAMFRDPFRRDPNKLVFCEVFKYNRKPAETNLRHSCKRIMDMVSSQHPWFGMEQEYTLMGTDGHPFGWPSNGFPGPQGPYYCGVGADKAYGRDIVEAHYRACLYAGIKITGTNAEVMPAQWEFQIGPCEGIRMGDHLWVARFILHRVCEDFGVIATFDPKPIPGNWNGAGCHTNFSTKAMREENGLRCIEEAIDKLSKRHQYHIRAYDPKGGLDNARRLTGFHETSNINDFSAGVANRSASIRIPRIVGQEKKGYFEDRRPSANCDPYAVTEAIVRTCLLNETGDEPFQYKN
B1 was tested, and the “stoichiometry N” value was 10.
